{"source": "patent US20210061908A1", "about": "(IOMX THERAPEUTICS, published 2021)", "binders": {"B1": {"name": "B-006 (chain-swapped, human IgG1 format) (antibody, V domains shown)", "VH": "EVQLVESGGGLIQPGGSLRLSCAASGFTVSSNYMSWVRQAPGKGLEWVSVIYSGGSTYYADSVKGRFTISRDNSKNTLYLQMNSLRAEDTAVYYCARGNPYYYGDLQVNFDYWGQGTLVTVSS", "VL": "QAVVTQEPSLTVSPGETVTLTCASSTGAVTSGYYPNWFQQRPGQAPRALIYSTSNKDSWTPARFSGSLLGGKAALTLSGVQPEDEAEYYCLLYYGGAWVFGGGTKLTVL", "notes": "VH of A-006 with VL of A-005; IgG1 format; also called B6; Chains-B-006"}}, "key": {"[1]": {"target": "T1, extracellular domain (ECD) of human IGSF11 (VSIG3), HIS-tagged (human, UniProt Q5DX21 23-241, biotinylated in the ELISA of Example 4 (site not stated))", "T1 construct": "also called HIS-IGSF11; IGSF11-HIS; not shown: HIS6 tag", "T1 sequence": "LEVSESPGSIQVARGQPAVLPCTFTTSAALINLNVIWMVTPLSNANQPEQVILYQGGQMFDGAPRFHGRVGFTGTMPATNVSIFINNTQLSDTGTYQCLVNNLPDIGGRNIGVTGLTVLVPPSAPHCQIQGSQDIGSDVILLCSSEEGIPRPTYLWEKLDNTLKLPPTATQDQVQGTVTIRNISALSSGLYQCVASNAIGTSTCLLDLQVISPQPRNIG", "assay": "ELISA: IGSF11-HIS coated, IgG1 antibody titrated, anti-human antibody-HRP and TMB; X-axis nM and Y-axis absorbance per legend paragraph 30"}, "[2]": {"target": "T1, extracellular domain (ECD) of human …", "assay": "blocking ELISA (Example 5): IgG titrated and pre-incubated with 200 nM his-tagged IGSF11 ECD, complexes added to immobilised VSIR-Fc, bound IGSF11 detected with anti-hexahistidine-HRP; blocked ligand: VSIR-Fc"}}, "data": [{"binder": "B1", "values": [{"measurement": "EC50 (read off the curve)", "setting": "[1]", "value": "~0.02", "unit": "nM"}, {"measurement": "IC50 (read off the curve)", "setting": "[2]", "value": "~5", "unit": "nM"}]}]}
